The values that follow come from publication PMC3374797, “Intrinsically Unstructured Domain 3 of Hepatitis C Virus NS5A Forms a “Fuzzy Complex” with VAPB-MSP Domain Which Carries ALS-Causing Mutations” (PLoS ONE, 2012).

Experiment [1] concerns the target T1, VAPB-MSP(1–125) (Homo sapiens, UniProt O95292). Description: NMR HSQC titration of 15N-VAPB-MSP(1-125) with NS5A fragments, Kd fitting. The experiment is classed as binding. Details: His tag (N, cleaved yes); made in house; host or cells: Escherichia coli BL21 (DE3) Star. The procedure: (§1) NMR samples were prepared in 10 mM phosphate buffer in the presence of 10 mM DTT (pH 6.8). All NMR data were collected at 25°C on an 800-MHz Bruker Avance spectrometer equipped with a shielded cryoprobe as described before [70]–[73]. For HSQC characterization, samples were prepared at a protein concentration of 100 µM. For sequential assignments of NS5A-D3, triple-resonance NMR experiments including HNCACB and CBCA(CO)NH were acquired on a double-labeled sample at a protein concentration of ∼300 µM while for sequential assignments of NS5A-D3A, three-dimensional heteronuclear NMR experiments including HSQC-TOCSY and HSQC-NOESY were acquired on a ^15N-labeled sample at a protein concentration of ∼500 µM. NMR data were processed with NMRpipe and analyzed with NMRview.
(§2) For NMR HSQC characterization of the binding interactions between NS5A and VAPB fragments/domains, two-dimensional ^1H-^15N HSQC spectra of the ^15N-labeled proteins were acquired at a protein concentration of 50 µM in the absence or presence of the unlabeled binding partners at different molar ratios. By superimposing the HSQC spectra at different molar ratios, the shifted or disappeared HSQC peaks could be identified and further assigned to the corresponding residues as we previously described, [67]–[70]. The degree of perturbation was reflected by an integrated chemical shift difference (CSD) calculated by the formula ((Δ^1H)^2+(Δ^15N)^2/5)^1/2 [73]. The CSD tracings were fitted by using the one binding site model to obtain residue-specific dissociation constants (Kd); which are summarized in Table 1.

For experiment [2], the target named is T2, VAPB-MSP(1–125) T46I mutant (Homo sapiens, UniProt O95292, T46I).
T2 construct: chemical shifts of VAPB-MSP(1–125) T46I mutant in the presence of unlabeled NS5A-D3C; His tag (N, cleaved yes); made in house; host or cells: Escherichia coli BL21 (DE3) Star
Description: NMR HSQC titration of 15N-VAPB-MSP(1-125) T46I mutant. The experiment is classed as binding. The procedure:
as §1, §2

The target in experiment [3] is T1, VAPB-MSP(1–125). Description: NMR competition of EphA4 LBD with D3B for VAPB-MSP(1-125). Details: His tag (N, cleaved yes); made in house; host or cells: Escherichia coli BL21 (DE3) Star. The conditions noted are these: MSP saturated by D3B at 1:4 (MSP/D3B); EphA4 at 1:10 (MSP:EphA4). In kind it is binding. As for the experimental part: NMR titration and docking results all reveal that the D3B peptide is able to occupy the MSP surface regions which are also critical for binding to EphA4 receptor as we previously characterized. To confirm this, we first saturated the VAPB-MSP(1–125) by D3B at a molar ratio of 1∶4 (MSP/D3B). Subsequently the EphA4 ligand-binding domain (LBD) was gradually titrated into this sample.
NMR samples were prepared in 10 mM phosphate buffer in the presence of 10 mM DTT (pH 6.8). All NMR data were collected at 25°C on an 800-MHz Bruker Avance spectrometer equipped with a shielded cryoprobe as described before [70]–[73]. For HSQC characterization, samples were prepared at a protein concentration of 100 µM. […] NMR data were processed with NMRpipe and analyzed with NMRview.
For NMR HSQC characterization of the binding interactions between NS5A and VAPB fragments/domains, two-dimensional ^1H-^15N HSQC spectra of the ^15N-labeled proteins were acquired at a protein concentration of 50 µM in the absence or presence of the unlabeled binding partners at different molar ratios. […] The degree of perturbation was reflected by an integrated chemical shift difference (CSD) calculated by the formula ((Δ^1H)^2+(Δ^15N)^2/5)^1/2 [73]. […]

The target in experiment [4] is T1, VAPB-MSP(1–125). Details: His tag (N, cleaved yes); made in house; host or cells: Escherichia coli BL21 (DE3) Star. The conditions noted are these: molar ratio 1:2; ref [51]; cited from earlier work. From the text: NMR titration and docking results all reveal that the D3B peptide is able to occupy the MSP surface regions which are also critical for binding to EphA4 receptor as we previously characterized. […] Subsequently the EphA4 ligand-binding domain (LBD) was gradually titrated into this sample.

Experiment [5] has as its system VAPB-MSP T46I mutant. The settings on record: ref [51]; cited from earlier work.
The target of experiment [6] is T1, VAPB-MSP(1–125). The experiment in a line: NMR titration.

Entries after “also recorded” stand apart in the source; their conditions may differ.

T2 sequence (O95292 1-125 T46I): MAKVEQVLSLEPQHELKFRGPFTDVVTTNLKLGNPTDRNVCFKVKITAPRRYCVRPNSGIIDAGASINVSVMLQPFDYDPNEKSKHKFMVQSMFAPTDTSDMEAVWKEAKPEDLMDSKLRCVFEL
T1 sequence (O95292 1-125): as the sequence (O95292 1-125 T46I) above, with I46T counted along it

For `CSCC[C@H](NC(=O)[C@H](CO)NC(=O)[C@H](CO)NC(=O)[C@H](Cc1ccc(O)cc1)NC(=O)[C@H](CO)NC(=O)[C@H](CCC(=O)O)NC(=O)[C@H](C)NC(=O)[C@H](CC(=O)O)NC(=O)[C@H](CO)NC(=O)CN)C(=O)N1CCC[C@H]1C(=O)N1CCC[C@H]1C(=O)N[C@@H](CC(C)C)C(=O)N[C@@H](CCC(=O)O)C(=O)NCC(=O)N[C@@H](CCC(=O)O)C(=O)N1CCC[C@H]1C(=O)NCC(=O)N[C@@H](CC(=O)O)C(=O)N1CCC[C@H]1C(=O)N[C@@H](CC(=O)O)C(=O)N[C@@H](CC(C)C)C(=O)N[C@@H](CO)C(=O)N[C@@H](CC(=O)O)C(=O)NCC(=O)N[C@@H](CO)C(=O)N[C@@H](Cc1c[nH]c2ccccc12)C(=O)N[C@@H](CO)C(=O)N[C@H](C(=O)N[C@H](C(=O)N[C@@H](CO)C(=O)N[C@@H](CCC(=O)O)C(=O)N[C@@H](CCC(=O)O)C(=O)N[C@@H](C)C(=O)N[C@@H](CO)C(=O)N[C@@H](CCC(=O)O)C(=O)N[C@@H](CC(=O)O)C(=O)N[C@H](C(=O)N[C@H](C(=O)O)C(C)C)C(C)C)C(C)C)[C@@H](C)O` [D3B], the “Interaction (Yes/No) with VAPB-MSP(1-125)” value in experiment [1] (15N-VAPB-MSP(1-125), unlabeled NS5A fragment) is reported as “Yes”. Further, the “MSP residues whose HSQC peaks undergo gradual but significant shifts” value in experiment [1] (molar ratio up to 1:4 (MSP/D3 peptide)) was “Gln6, Met89-Val90-Gln91, Asp116, Leu119 and Val122”. In addition, the “Binding affinity to VAPB-MSP, in words” value in experiment [1] (relative to D3 (and D3A, D3B)) is “retains almost the same binding affinity and mode as the 89-residue D3”. For the same molecule, the “HSQC perturbation of VAPB-MSP(1-125)” value in experiment [1] (words, 50 µM 15N-labelled protein) is “almost the same shifting pattern and similar amplitude”. Also, in experiment [2] (15N-VAPB-MSP(1-125) T46I), the “Interaction (Yes/No) with VAPB-MSP(1-125) T46I” value is given as “Yes/Weak”. In addition, the “HSQC perturbation of T46I mutant” value in experiment [2] (molar ratio up to 1:6 (T46I/D3B)) was “only a small set of T46I HSQC peaks were found to shift slightly of very small amplitude”. Further, the “Kd for T46I mutant, statement in words” value in experiment [2] (shift tracings highly unsaturated, up to 1:6 (T46I/D3B)) is on record as “impossible to fit out the CSD tracings to obtain Kd values”.
For “EphA4 LBD: 181-residue EphA4 ligand binding domain”, the “HSQC perturbation of MSP by EphA4 LBD with pre-existence of D3B” value in experiment [3] is on record as “only several MSP peaks were observed to shift slightly”. Moreover, the “HSQC perturbation of MSP by EphA4 LBD without D3B” value in experiment [4] was “started to trigger peak shift and disappearance of the MSP residues”. Moreover, the “Effect of T46I mutation on binding to EphA4” value in experiment [5] is given as “reduced affinity to EphA4; also recorded: considerably reduces the binding affinity to EphA4”.
On to NS5A-D3(359–447) (domain or fragment), for which, in experiment [6], the Kd (commonly the equilibrium constant for the complex coming apart) turned out to be 4.5 µM, the residue-specific Kd (Asp116) was found to be 6.2 µM, the residue-specific Kd (Gln6) turned out to be 6.8 µM and the residue-specific Kd (Gln91) was found to be 2.4 µM. Also, in experiment [6], the residue-specific Kd (Leu119) is 4.5 µM, the residue-specific Kd (Met89) turned out to be 5.2 µM, the residue-specific Kd (Val90) worked out at 4.6 µM and the residue-specific Kd (Val122) was found to be 1.7 µM.
In experiment [6], NS5A-D3A(394–447) (domain or fragment) registered a Kd of 8 µM, a residue-specific Kd (Asp116) of 10.2 µM, a residue-specific Kd (Gln6) of 11.5 µM and a residue-specific Kd (Gln91) of 7.1 µM. Also, in experiment [6], the residue-specific Kd (Leu119) is 7.7 µM, the residue-specific Kd (Met89) is 9.9 µM, the residue-specific Kd (Val90) was found to be 7.2 µM and the residue-specific Kd (Val122) amounted to 2.4 µM.
